Earlier results as cited in publication PMC7616283.

Biological target: CCR8 (Homo sapiens) (UniProt P51685)
Sequence (P51685 whole entry): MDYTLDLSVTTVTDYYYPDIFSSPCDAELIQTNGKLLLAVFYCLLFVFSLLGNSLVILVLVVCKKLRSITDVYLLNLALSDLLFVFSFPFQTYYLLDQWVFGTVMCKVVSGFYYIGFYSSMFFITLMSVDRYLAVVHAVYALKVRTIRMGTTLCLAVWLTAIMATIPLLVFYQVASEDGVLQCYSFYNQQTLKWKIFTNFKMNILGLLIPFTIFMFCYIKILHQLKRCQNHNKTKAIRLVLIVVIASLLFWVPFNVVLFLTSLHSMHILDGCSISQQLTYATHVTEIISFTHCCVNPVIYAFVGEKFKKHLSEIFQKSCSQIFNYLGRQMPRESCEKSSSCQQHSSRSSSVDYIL

CCL18, sequence (P55774 24-89): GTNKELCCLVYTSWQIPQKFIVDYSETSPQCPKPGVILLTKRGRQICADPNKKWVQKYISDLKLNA

CCL18 (from UniProt P55774)
Kd: 1.9 nM
